For one data set, the system named is T1, MrUGT78W1.
T1 construct: gene UGT78W1; full length, 469 residues (ORF 1410 bp), pET-32a(+) in E. coli BL21(DE3)pLysS, HisTALON purified, tag cleavage not mentioned; gene on chromosome 7
Description: UDP-Glo glycosyltransferase assay, luminescence. Type of data set: biochemical, Morella rubra. Conditions: 650 μM UDP-Gal, Tris-HCl 100 mM pH 8.5, 30°C. An excerpt: UDP-Glo glycosyltransferase assay, luminescence on MrUGT78W1

Substrate in data set [1]: O=c1c(O)c(-c2ccc(O)cc2)oc2cc(O)cc(O)c12
As to the kind of experiment: UDP-Glo glycosyltransferase assay, luminescence. Conditions: 650 μM UDP-Rha, Tris-HCl 100 mM pH 7.5, 35°C. It counts as biochemical, Morella rubra. The source says: (§1) UDP-Glo glycosyltransferase assay, luminescence on MrUGT78R2

Substrate in data set [2]: O=c1c(O)c(-c2ccc(O)c(O)c2)oc2cc(O)cc(O)c12
As to the kind of experiment: UDP-Glo glycosyltransferase assay, luminescence. It counts as biochemical, Morella rubra. Conditions: 650 μM UDP-Rha, Tris-HCl 100 mM pH 7.5, 35°C.
Source text: as §1

Substrate in the data set “purified protein”: O=c1c(O)c(-c2cc(O)c(O)c(O)c2)oc2cc(O)cc(O)c12
As to the kind of experiment: purified protein. Conditions: 650 μM UDP-Rha, Tris-HCl 100 mM pH 7.5, 35°C.

As a reminder, the Km is the concentration of substrate that gives half-maximal velocity. Consider `O=c1c(O)c(-c2ccc(O)c(O)c2)oc2cc(O)cc(O)c12` [Q, Quercetin], for which the Km in the data set on MrUGT78W1 came to 93.5 ± 2.69 µM.

With `O=c1c(O)c(-c2cc(O)c(O)c(O)c2)oc2cc(O)cc(O)c12` [M, Myricetin], the Km in the data set on MrUGT78W1 amounted to 13.7 ± 0.92 µM.

As for `O=c1c(O)c(-c2ccc(O)cc2)oc2cc(O)cc(O)c12` [K, Kaempferol], in the data set with MrUGT78W1, the Km worked out at 50 ± 4.63 µM.

B1: MrUGT78R2 (Morella rubra) (protein)
chain: MTQSSQDQHVAVLAFPLGCHPWPLLNLACKLACAAPNVRFSFFNTPKSNSKLFSTSQAEPPQNLKAYDVADGVPEGHVFTPGNPVEELELFLNAAPESFRNGMDMAVAETGREISCLLTDAFLVFASEMALDMHAKWVPFWVPAPHSLSAHMYSDLIYETYTNVCGGGEDGINTSDGDNYGTGTLGGIKPIDKTLDVIPGLSIMRFRDLPQQLLLGDFNSSLFSSALYRIGAVLPQASAVIMNSFQELNPATLTDDLKSKFQNLLYVGFLTLTLPPPPPPPSHSDATGCLPWLDDQKPTSVAYISFGTVSAVPPHEFVALAEALEASHVPFLWSLRDNFKEILPTGFLQRTRTQGKIVPWAPQAHVLAHKAVGVYVTHCGYNSVFESVVGEVPMICRPILGDNMFNGRMVEDVWGIGVGVEGGVFTKNGMLKSLEVVLGEEHGKRMREKIRDIKDLVVKAAGPTGIASKDFNTLVEVISK
notes: full length, 480 residues (ORF 1443 bp), pET-32a(+) in E. coli BL21(DE3)pLysS, HisTALON purified, tag cleavage not mentioned
As usually defined, the kcat/Km is the turnover number divided by the Michaelis constant. For B1, the values for the Km (in data set [1]; in data set [2]; in the data set “purified protein”) were 58.11 ± 5.52 µM, 61.81 ± 8.74 µM and 66.78 ± 3.56 µM, respectively. For the same molecule, the kcat/Km in data set [1] was 37800 ± 2500 M⁻¹ s⁻¹; in data set [2], 45900 ± 4500 M⁻¹ s⁻¹; in the data set “purified protein”, 34700 M⁻¹ s⁻¹.
